Measured values reported in the supplement of paper PMC10567573.

B1: TRAF3IP2 (parent)
chain: PRPPSNPPARGTLKTSNLPEELRK

Variants of: B1
Assay: protein stability index of a GFP-peptide fusion (GPS, HEK-293T) (PSI 1-6); higher = more stable
Conditions: c terminus: a fixed tail appended
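Also: lentivirally expressed fusions sorted by FACS into six bins by GFP to DsRed ratio, PSI derived from sequencing read proportions per bin multiplied by bin number.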

Protein stability index: each site, then its substitutions
L18: N 4.71 | K 5.26 | S 5.62 | W 4.2 | G 4.96 | Y 5.14 | T 4.96 | F 4.72 | R 4.56 | Q 5.08 | I 4.38 | M 4.5 | D 4.67 | H 4.8 | A 4.92 | V 5.06
K14: W 4.58 | P 4.83 | I 4.82 | S 5.4 | C 4.76 | T 5.09 | Q 5.21 | V 5.17 | D 5.37 | N 4.97 | F 4.84 | R 4.65 | M 4.94 | H 5.22 | L 5.17 | A 5.35 | Y 4.77 | E 5.27 | G 4.68
S16: N 4.37 | T 4.92 | E 4.95 | K 4.74 | D 4.83 | W 3.47 | I 4.49 | G 4.79 | R 4.79 | H 4.33 | Q 4.48 | M 4.7 | Y 4.48 | L 4.75 | A 4.41 | V 4.17 | C 4.19 | F 4.47
E21: W 3.69 | D 4.71 | T 4.46 | N 4.6 | V 3.74 | L 4.26 | H 3.94 | A 4.6 | Q 5.04 | K 4.26 | I 4.29 | M 3.06 | Y 4.23 | P 3.62 | G 4.36 | S 3.97 | R 4.2 | F 3.73 | C 4.19
T12: S 4.35 | G 4 | F 4.3 | N 4.42 | Q 4.52 | V 4.41 | H 4.75 | E 4.54 | A 4.66 | Y 4.78 | D 4.88 | W 3.65 | K 4.7 | L 4.65 | I 4.54 | R 4.58 | C 4.24 | M 4.56
N6: E 5.15 | H 5.21 | L 5.01 | Q 4.78 | R 4.49 | C 5.18 | D 4.8 | T 4.69 | Y 4.99 | G 4.65 | K 4.72 | F 5.34 | M 5.31 | V 4.79 | S 5.01 | W 5.83 | A 5.47 | I 4.62
K24: G 4.05 | E 4.99 | F 4.33 | C 4.9 | D 5.14 | A 4.86
L22: V 3.16 | W 4.25 | P 5.15 | A 4.55 | Q 5.39 | M 4.75 | Y 4.47 | D 5.22 | H 5.11 | K 4.97 | T 5.4 | S 4.96 | G 4.15 | E 5.61 | I 4.56 | R 4.82 | F 4.24 | N 4.93 | C 5.65
S5: R 4.36 | G 4.89 | M 5 | Y 3.84 | V 4.76 | H 4.38 | Q 4.45 | W 3.98 | N 4.63 | T 4.56 | I 4.75 | L 4.19 | K 4.21
P8: Q 5.09 | S 4.8 | W 4.22 | G 4.82 | R 4.43 | A 5.06 | V 5.04 | N 4.82 | L 4.69 | C 4.48 | Y 4.69 | T 5.02 | I 4.72 | F 4.43 | D 4.99 | H 3.56 | K 4.99 | M 4.76 | E 4.81
E20: V 3.41 | I 3.44 | P 4.21 | L 4.1 | N 4.61 | W 4 | S 4.52 | G 5.51 | K 4.2 | Y 3.95 | C 4.44 | H 3.96 | D 4.81 | A 4.41 | R 4.48 | Q 4.67 | M 4.14 | F 4.06 | T 4.25
A9: F 4.37 | V 4.31 | Y 4.5 | N 4.95 | C 4.31 | L 4.85 | M 4.68 | K 4.44 | Q 4.7 | E 5.06 | W 4.47 | R 4.6 | S 4.62 | D 5 | H 4.63 | I 4.65 | T 5.3 | G 4.84
G11: C 4.25 | D 4.86 | L 3.88 | P 4.42 | E 4.96 | Y 4.28 | V 4.37 | F 3.69 | S 4.54 | W 3.54 | A 4.73 | R 3.85
R10: L 4.96 | C 4.58 | M 4.64 | E 4.47 | W 4.76 | F 4.49 | V 5.64 | Y 4.89 | G 4.27
N17: H 4.58 | K 4.07 | V 3.94 | S 4.91 | C 4.29 | A 5.05 | F 4.42 | M 4.8 | W 3.51 | E 5.13 | I 4.55 | D 5.09 | Y 4.77 | T 4.21 | L 4.49 | G 4.82 | P 5.08
L13: Y 4.25 | A 4.52 | D 5.09 | E 5.04 | F 4.37 | V 5.32 | N 5.15 | S 4.94 | C 3.92 | I 4.6 | M 5.06 | T 4.82 | K 4.79 | R 4.6 | G 4.67 | W 4.44 | H 4.36 | Q 4.8
P7: V 4.11 | H 4.27 | W 4.02 | K 4.53 | G 4.58 | Y 4.05 | R 4.75 | D 4.97 | L 4.83 | C 4.4 | N 5.17 | Q 4.56 | A 4.8 | T 4.76 | I 4.5 | M 4.09 | E 4.81 | S 4.89 | F 4.21
R23: P 5.21 | M 4.31 | Y 4.47 | T 4.77 | A 4.7 | N 5.2 | G 4.7 | S 5.16 | D 4.9 | K 4.92 | E 4.94 | W 3.42 | H 4.7 | C 4.64 | Q 5.23 | L 4.19 | F 3.92 | I 4.39 | V 4.13
T15: K 4.82 | V 4.48 | W 3.67 | F 4.29 | G 4.95 | A 4.22 | R 4.52 | M 4.43 | E 4.94 | L 4.29 | D 5.13 | P 4.64 | N 4.53 | C 4.72 | Q 4.48 | I 4.14 | H 4.99 | S 4.79 | Y 4.64
P19: K 4.59 | H 3.36 | A 4.48 | I 4 | M 4.47 | C 4.7 | D 4.89 | L 4.43 | Q 4.75 | Y 3.54 | W 3.98 | R 4.14 | T 4.14 | F 4.28 | G 4.36 | E 5.1 | V 4.09 | S 4.75 | N 4.83
